Source: the supplement of paper PMC9112550, “Optimization of the antimicrobial peptide Bac7 by deep mutational scanning” (BMC Biology, 2022)

Tested on: Escherichia coli TOP10
Test: shrunken log2 fold change of peptide-encoding DNA abundance (4.5 h post-induction vs induction); higher = less antimicrobial activity (less host growth inhibition)
Conditions: time post-induction: 4.5 h; library: site-saturation at positions 5, 18, 19, 20
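Note: peptides expressed intracellularly from a pBAD plasmid library in pooled LB shake-flask culture, induced with 0.3% L-arabinose, DNA abundance read by NGS, three biological replicates, DESeq2 with apeglm shrinkage.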

Sequence	shrunken log2 fold change
RRIRQRPPRLPRPRPRPQDIPRP	0.0203
RRIRQRPPRLPRPRPRPQDVPRP	-0.0199
RRIRQRPPRLPRPRPRPQGAPRP	-0.0289
RRIRQRPPRLPRPRPRPQGVPRP	0.0036
RRIRQRPPRLPRPRPRPQIFPRP	-0.0511
RRIRQRPPRLPRPRPRPQKRPRP	-0.354
RRIRQRPPRLPRPRPRPQLRPRP	-0.165
RRIRQRPPRLPRPRPRPQPDPRP	-0.00546
RRIRQRPPRLPRPRPRPQQQPRP	-0.0448
RRIRQRPPRLPRPRPRPQRVPRP	-0.182
RRIRQRPPRLPRPRPRPQSSPRP	0.0994
RRIRQRPPRLPRPRPRPQVSPRP	0.301
RRIRQRPPRLPRPRPRPQWIPRP	-0.0848
RRIRQRPPRLPRPRPRPRDQPRP	-0.0332
RRIRQRPPRLPRPRPRPRDRPRP	0.399
RRIRQRPPRLPRPRPRPRECPRP	0.147
RRIRQRPPRLPRPRPRPRGAPRP	0.399
RRIRQRPPRLPRPRPRPRNTPRP	-0.00635
RRIRQRPPRLPRPRPRPRPEPRP	0.646
RRIRQRPPRLPRPRPRPRQQPRP	-0.0145
RRIRQRPPRLPRPRPRPRSPPRP	0.0984
RRIRQRPPRLPRPRPRPRSTPRP	0.203
RRIRQRPPRLPRPRPRPRTKPRP	0.0706
RRIRQRPPRLPRPRPRPRVNPRP	-0.0952
RRIRQRPPRLPRPRPRPRWKPRP	0.552

Sequence	shrunken log2 fold change
RRIRQRPPRLPRPRPRPRWNPRP	-0.0799
RRIRQRPPRLPRPRPRPRWSPRP	0.231
RRIRQRPPRLPRPRPRPRYGPRP	-0.407
RRIRQRPPRLPRPRPRPRYIPRP	-0.706
RRIRQRPPRLPRPRPRPRYKPRP	-0.278
RRIRQRPPRLPRPRPRPRYPPRP	-0.0427
RRIRQRPPRLPRPRPRPSCIPRP	-0.238
RRIRQRPPRLPRPRPRPSCMPRP	-0.508
RRIRQRPPRLPRPRPRPSDCPRP	-0.756
RRIRQRPPRLPRPRPRPSDVPRP	-0.0706
RRIRQRPPRLPRPRPRPSDYPRP	-0.0346
RRIRQRPPRLPRPRPRPSERPRP	-0.143
RRIRQRPPRLPRPRPRPSEVPRP	-0.022
RRIRQRPPRLPRPRPRPSGVPRP	-0.141
RRIRQRPPRLPRPRPRPSHPPRP	-0.272
RRIRQRPPRLPRPRPRPSIQPRP	-0.13
RRIRQRPPRLPRPRPRPSKRPRP	-0.188
RRIRQRPPRLPRPRPRPSLCPRP	-0.0894
RRIRQRPPRLPRPRPRPSLEPRP	0.0433
RRIRQRPPRLPRPRPRPSLLPRP	-0.216
RRIRQRPPRLPRPRPRPSMIPRP	-0.603
RRIRQRPPRLPRPRPRPSMMPRP	-0.565
RRIRQRPPRLPRPRPRPSMPPRP	-0.0542
RRIRQRPPRLPRPRPRPSNGPRP	-0.687
RRIRQRPPRLPRPRPRPSNYPRP	-0.0943

Sequence	shrunken log2 fold change
RRIRQRPPRLPRPRPRPSQRPRP	-0.523
RRIRQRPPRLPRPRPRPSSPPRP	0.167
RRIRQRPPRLPRPRPRPSTEPRP	-0.0926
RRIRQRPPRLPRPRPRPSTMPRP	0.0933
RRIRQRPPRLPRPRPRPSYRPRP	-0.0524
RRIRQRPPRLPRPRPRPTAFPRP	0.321
RRIRQRPPRLPRPRPRPTAHPRP	-0.0756
RRIRQRPPRLPRPRPRPTASPRP	-0.0116
RRIRQRPPRLPRPRPRPTFFPRP	-0.0813
RRIRQRPPRLPRPRPRPTGYPRP	0.0832
RRIRQRPPRLPRPRPRPTHMPRP	0.0516
RRIRQRPPRLPRPRPRPTIGPRP	0.0815
RRIRQRPPRLPRPRPRPTIQPRP	0.0369
RRIRQRPPRLPRPRPRPTITPRP	-0.273
RRIRQRPPRLPRPRPRPTKWPRP	0.25
RRIRQRPPRLPRPRPRPTMQPRP	0.0998
RRIRQRPPRLPRPRPRPTMRPRP	0.86
RRIRQRPPRLPRPRPRPTNTPRP	-0.216
RRIRQRPPRLPRPRPRPTQDPRP	0.508
RRIRQRPPRLPRPRPRPTQMPRP	0.0693
RRIRQRPPRLPRPRPRPTQPPRP	0.356
RRIRQRPPRLPRPRPRPTQQPRP	0.0196
RRIRQRPPRLPRPRPRPTRCPRP	0.747
RRIRQRPPRLPRPRPRPTRQPRP	0.798
RRIRQRPPRLPRPRPRPTSHPRP	0.0206

Sequence	shrunken log2 fold change
RRIRQRPPRLPRPRPRPTSYPRP	-0.154
RRIRQRPPRLPRPRPRPTTNPRP	-0.143
RRIRQRPPRLPRPRPRPTVNPRP	-0.0853
RRIRQRPPRLPRPRPRPTWNPRP	-0.0697
RRIRQRPPRLPRPRPRPVAWPRP	0.128
RRIRQRPPRLPRPRPRPVCEPRP	-0.00878
RRIRQRPPRLPRPRPRPVCRPRP	0.198
RRIRQRPPRLPRPRPRPVCSPRP	-0.21
RRIRQRPPRLPRPRPRPVHPPRP	0.211
RRIRQRPPRLPRPRPRPVHQPRP	-0.104
RRIRQRPPRLPRPRPRPVILPRP	-0.0369
RRIRQRPPRLPRPRPRPVKIPRP	0.352
RRIRQRPPRLPRPRPRPVLKPRP	-0.108
RRIRQRPPRLPRPRPRPVMFPRP	-0.0919
RRIRQRPPRLPRPRPRPVMRPRP	0.444
RRIRQRPPRLPRPRPRPVPWPRP	-0.01
RRIRQRPPRLPRPRPRPVRPPRP	0.162
RRIRQRPPRLPRPRPRPVRWPRP	0.428
RRIRQRPPRLPRPRPRPVTKPRP	-0.0142
RRIRQRPPRLPRPRPRPVVTPRP	0.219
RRIRQRPPRLPRPRPRPVVVPRP	-0.0728
RRIRQRPPRLPRPRPRPVWFPRP	0.111
RRIRQRPPRLPRPRPRPVYIPRP	-0.214
RRIRQRPPRLPRPRPRPVYWPRP	0.0694
RRIRQRPPRLPRPRPRPWCKPRP	-0.0323

Sequence	shrunken log2 fold change
RRIRQRPPRLPRPRPRPWCYPRP	-0.466
RRIRQRPPRLPRPRPRPWDCPRP	-0.383
RRIRQRPPRLPRPRPRPWDRPRP	-0.127
RRIRQRPPRLPRPRPRPWEIPRP	-0.00822
RRIRQRPPRLPRPRPRPWGEPRP	-0.0675
RRIRQRPPRLPRPRPRPWGRPRP	0.00592
RRIRQRPPRLPRPRPRPWHNPRP	-0.385
RRIRQRPPRLPRPRPRPWHWPRP	0.107
RRIRQRPPRLPRPRPRPWLEPRP	0.0751
RRIRQRPPRLPRPRPRPWLFPRP	0.0523
RRIRQRPPRLPRPRPRPWNLPRP	-0.0507
RRIRQRPPRLPRPRPRPWNTPRP	-0.169
RRIRQRPPRLPRPRPRPWQCPRP	-0.1
RRIRQRPPRLPRPRPRPWRLPRP	-0.0759
RRIRQRPPRLPRPRPRPWSHPRP	-0.105
RRIRQRPPRLPRPRPRPWSKPRP	0.00202
RRIRQRPPRLPRPRPRPWVKPRP	0.0219
RRIRQRPPRLPRPRPRPWVSPRP	-0.0689
RRIRQRPPRLPRPRPRPYAIPRP	-0.436
RRIRQRPPRLPRPRPRPYAYPRP	-0.0214
RRIRQRPPRLPRPRPRPYDHPRP	-0.534
RRIRQRPPRLPRPRPRPYDIPRP	0.0432
RRIRQRPPRLPRPRPRPYERPRP	0.074
RRIRQRPPRLPRPRPRPYGYPRP	-0.354
RRIRQRPPRLPRPRPRPYHAPRP	-0.052

Sequence	shrunken log2 fold change
RRIRQRPPRLPRPRPRPYHVPRP	-0.00172
RRIRQRPPRLPRPRPRPYLAPRP	-0.21
RRIRQRPPRLPRPRPRPYLRPRP	-0.176
RRIRQRPPRLPRPRPRPYPHPRP	-0.0795
RRIRQRPPRLPRPRPRPYPQPRP	-0.00227
RRIRQRPPRLPRPRPRPYRCPRP	-0.122
RRIRQRPPRLPRPRPRPYRHPRP	-0.268
RRIRQRPPRLPRPRPRPYSKPRP	-0.119
RRIRQRPPRLPRPRPRPYSRPRP	-0.0567
RRIRQRPPRLPRPRPRPYTEPRP	-0.00136
RRIRQRPPRLPRPRPRPYVKPRP	-0.365
RRIRQRPPRLPRPRPRPYVPPRP	-0.157
RRIRQRPPRLPRPRPRPYVSPRP	-0.0823
RRIRQRPPRLPRPRPRPYVYPRP	0.00646
RRIRQRPPRLPRPRPRPYWLPRP	-0.307
RRIRQRPPRLPRPRPRPYWQPRP	-0.411
RRIRQRPPRLPRPRPRPYYWPRP	0.0316
RRIRRRPPRLPRPRPRPAAAPRP	0.941
RRIRRRPPRLPRPRPRPAADPRP	0.594
RRIRRRPPRLPRPRPRPACHPRP	0.306
RRIRRRPPRLPRPRPRPAEEPRP	0.618
RRIRRRPPRLPRPRPRPAFAPRP	0.456
RRIRRRPPRLPRPRPRPAFVPRP	0.36
RRIRRRPPRLPRPRPRPAFWPRP	0.547
RRIRRRPPRLPRPRPRPAHPPRP	0.769
